Experimental findings from paper PMC10702470, “Activation of Csm6 ribonuclease by cyclic nucleotide binding: in an emergency, twist to open” (Nucleic Acids Research, 2023) are described below.

For data set [1], the target named is T1, StCsm6’ (Csm6’) (Streptococcus thermophilus, UniProt A0A0A7HFE6).
T1 construct: full length, 386 residues, CARF 1-173, 6H 174-239, HEPN 240-386; E. coli C43(DE3), pEV5HisTEV, 8-His tag cut by TEV; symmetrical homodimer
T1 sequence (A0A0A7HFE6 1-386): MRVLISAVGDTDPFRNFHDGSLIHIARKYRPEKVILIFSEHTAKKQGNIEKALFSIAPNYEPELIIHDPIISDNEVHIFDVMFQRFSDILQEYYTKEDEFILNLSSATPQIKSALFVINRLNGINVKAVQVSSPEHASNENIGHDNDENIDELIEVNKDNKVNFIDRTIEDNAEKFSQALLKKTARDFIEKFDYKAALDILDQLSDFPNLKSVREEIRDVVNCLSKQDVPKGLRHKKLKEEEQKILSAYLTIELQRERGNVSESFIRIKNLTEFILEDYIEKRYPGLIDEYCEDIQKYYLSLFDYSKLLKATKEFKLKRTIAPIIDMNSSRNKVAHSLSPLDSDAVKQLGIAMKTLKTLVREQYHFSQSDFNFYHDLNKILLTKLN
Briefly: X-ray crystallography, […] Å. It is filed as binding. Conditions: CARF domain site at dimer; occupancy 0.50, mixed with cleaved product.

For data set [2], the target named is T1, StCsm6’ (Csm6’). Briefly: fluorogenic RNase activation assay (RNaseAlert FAM). The data set is classed as biochemical. Conditions: activator, CARF domain; 1 µM dimer, 125 nM reporter RNA, MES pH 6.0, 30 mM NaCl, 20% glycerol, 45 °C, 30 min.
Data set [3] deals with the molecule itself. Briefly: crystal structure; StCsm6’ co-crystallised with cA6 (1:1.5 molar ratio), 1.96 Å; homodimer.
Data set [4] concerns the molecule itself. Briefly: pulse dipolar EPR spectroscopy (PELDOR/DEER); spin-labelled protein at 50 μM in deuterated buffer with 50% glycerol, frozen solution, 50 K, Q-band, with and without 25 μM cA6; distances between spin labels in the two monomers.

Consider `Nc1ncnc2c1ncn2[C@@H]1O[C@@H]2COP(=O)(O)O[C@H]3[C@@H](O)[C@H](n4cnc5c(N)ncnc54)O[C@@H]3COP(=O)(O)O[C@H]3[C@@H](O)[C@H](n4cnc5c(N)ncnc54)O[C@@H]3COP(=O)(O)O[C@H]3[C@@H](O)[C@H](n4cnc5c(N)ncnc54)O[C@@H]3COP(=O)(O)O[C@H]3[C@@H](O)[C@H](n4cnc5c(N)ncnc54)O[C@@H]3COP(=O)(O)O[C@H]3[C@@H](O)[C@H](n4cnc5c(N)ncnc54)O[C@@H]3COP(=O)(O)O[C@H]2[C@H]1O` [cA6, cyclic hexa-adenylate], for which the “X-ray crystallography, 1.96 Å” value at StCsm6’ (Csm6’) [1] was “electron density consistent with a molecule of cA6 bound to the StCsm6’ dimer”. In addition, the “concentration for full activation” value on StCsm6’ (Csm6’) [2] is listed as ~ 100 nM.

B1: Streptococcus thermophilus Csm6’ (enzyme, UniProt A0A0A7HFE6 1-386, looked up)
chain: MRVLISAVGDTDPFRNFHDGSLIHIARKYRPEKVILIFSEHTAKKQGNIEKALFSIAPNYEPELIIHDPIISDNEVHIFDVMFQRFSDILQEYYTKEDEFILNLSSATPQIKSALFVINRLNGINVKAVQVSSPEHASNENIGHDNDENIDELIEVNKDNKVNFIDRTIEDNAEKFSQALLKKTARDFIEKFDYKAALDILDQLSDFPNLKSVREEIRDVVNCLSKQDVPKGLRHKKLKEEEQKILSAYLTIELQRERGNVSESFIRIKNLTEFILEDYIEKRYPGLIDEYCEDIQKYYLSLFDYSKLLKATKEFKLKRTIAPIIDMNSSRNKVAHSLSPLDSDAVKQLGIAMKTLKTLVREQYHFSQSDFNFYHDLNKILLTKLN
notes: Csm6’ ribonuclease of the type III-A CRISPR system of Streptococcus thermophilus; 386 residues in the monomer (CARF 1-173, 6H 174-239, HEPN 240-386); Cloned in pEV5HisTEV between NcoI and BamHI; Crystallised with cA6 (8PE3) and without (8PCW); also called StCsm6’; WT StCsm6’; source: E. coli C43 (DE3), purified (HisTrap, TEV cleavage, second IMAC, SEC)
Take B1: in data set [3], the “stoichiometry N” value was 2.

B2: StCsm6’ variant C223A:C292A:N209C:R85C, MTSL spin-labelled (enzyme, Streptococcus thermophilus, UniProt A0A0A7HFE6 1-386, looked up)
chain: MRVLISAVGDTDPFRNFHDGSLIHIARKYRPEKVILIFSEHTAKKQGNIEKALFSIAPNYEPELIIHDPIISDNEVHIFDVMFQCFSDILQEYYTKEDEFILNLSSATPQIKSALFVINRLNGINVKAVQVSSPEHASNENIGHDNDENIDELIEVNKDNKVNFIDRTIEDNAEKFSQALLKKTARDFIEKFDYKAALDILDQLSDFPCLKSVREEIRDVVNALSKQDVPKGLRHKKLKEEEQKILSAYLTIELQRERGNVSESFIRIKNLTEFILEDYIEKRYPGLIDEYAEDIQKYYLSLFDYSKLLKATKEFKLKRTIAPIIDMNSSRNKVAHSLSPLDSDAVKQLGIAMKTLKTLVREQYHFSQSDFNFYHDLNKILLTKLN
modifications: MTSL spin-labelled cysteine side chain R1 at 85 and 209
notes: Csm6’ ribonuclease of Streptococcus thermophilus, 386 residues in the monomer, with four substitutions; parent as m1; Variants were expressed and purified as described for the WT protein; also called R85C/N209C; R85R1/N209R1; source: E. coli C43 (DE3), purified as the WT protein, then spin-labelled with MTSL
For B2, the binding result in data set [4] is recorded as “binds”.

B3: StCsm6’ variant C223A:C292A:N209C:D88C, MTSL spin-labelled (enzyme, Streptococcus thermophilus, UniProt A0A0A7HFE6 1-386, looked up)
chain: MRVLISAVGDTDPFRNFHDGSLIHIARKYRPEKVILIFSEHTAKKQGNIEKALFSIAPNYEPELIIHDPIISDNEVHIFDVMFQRFSCILQEYYTKEDEFILNLSSATPQIKSALFVINRLNGINVKAVQVSSPEHASNENIGHDNDENIDELIEVNKDNKVNFIDRTIEDNAEKFSQALLKKTARDFIEKFDYKAALDILDQLSDFPCLKSVREEIRDVVNALSKQDVPKGLRHKKLKEEEQKILSAYLTIELQRERGNVSESFIRIKNLTEFILEDYIEKRYPGLIDEYAEDIQKYYLSLFDYSKLLKATKEFKLKRTIAPIIDMNSSRNKVAHSLSPLDSDAVKQLGIAMKTLKTLVREQYHFSQSDFNFYHDLNKILLTKLN
modifications: MTSL spin-labelled cysteine side chain R1 at 88 and 209
notes: Csm6’ ribonuclease of Streptococcus thermophilus, 386 residues in the monomer, with four substitutions; parent as m1; Variants were expressed and purified as described for the WT protein; also called D88C/N209C; D88R1/N209R1; source: E. coli C43 (DE3), purified as the WT protein, then spin-labelled with MTSL
B3: in data set [4], the binding result is listed as “binds”.
